Source: patent US20250222128A1, “ANTIBODY DRUG-CONJUGATES TARGETING C-MET AND METHODS OF USE THEREOF” (Zymeworks BC Inc., priority 2022, published 2025)

What was measured:
[1] = molecular target: c-Met (hepatocyte growth factor receptor, HGFR), endogenous on tumour cell lines (UniProt P08581); assay: cell-based or functional assay
[2] = molecular target: c-Met (hepatocyte growth factor receptor, HGFR), endogenous on tumour cell lines (UniProt P08581); assay: apparent Kd, flow cytometry on SNU-5 cells (endogenous cMet)
[3] = molecular target: c-Met (hepatocyte growth factor receptor, HGFR), endogenous on tumour cell lines (UniProt P08581); assay: apparent Kd, flow cytometry on H292 cells (endogenous cMet)

Sequence of c-Met (hepatocyte growth factor receptor, HGFR), endogenous on tumour cell lines (P08581 25-1390 limits assumed): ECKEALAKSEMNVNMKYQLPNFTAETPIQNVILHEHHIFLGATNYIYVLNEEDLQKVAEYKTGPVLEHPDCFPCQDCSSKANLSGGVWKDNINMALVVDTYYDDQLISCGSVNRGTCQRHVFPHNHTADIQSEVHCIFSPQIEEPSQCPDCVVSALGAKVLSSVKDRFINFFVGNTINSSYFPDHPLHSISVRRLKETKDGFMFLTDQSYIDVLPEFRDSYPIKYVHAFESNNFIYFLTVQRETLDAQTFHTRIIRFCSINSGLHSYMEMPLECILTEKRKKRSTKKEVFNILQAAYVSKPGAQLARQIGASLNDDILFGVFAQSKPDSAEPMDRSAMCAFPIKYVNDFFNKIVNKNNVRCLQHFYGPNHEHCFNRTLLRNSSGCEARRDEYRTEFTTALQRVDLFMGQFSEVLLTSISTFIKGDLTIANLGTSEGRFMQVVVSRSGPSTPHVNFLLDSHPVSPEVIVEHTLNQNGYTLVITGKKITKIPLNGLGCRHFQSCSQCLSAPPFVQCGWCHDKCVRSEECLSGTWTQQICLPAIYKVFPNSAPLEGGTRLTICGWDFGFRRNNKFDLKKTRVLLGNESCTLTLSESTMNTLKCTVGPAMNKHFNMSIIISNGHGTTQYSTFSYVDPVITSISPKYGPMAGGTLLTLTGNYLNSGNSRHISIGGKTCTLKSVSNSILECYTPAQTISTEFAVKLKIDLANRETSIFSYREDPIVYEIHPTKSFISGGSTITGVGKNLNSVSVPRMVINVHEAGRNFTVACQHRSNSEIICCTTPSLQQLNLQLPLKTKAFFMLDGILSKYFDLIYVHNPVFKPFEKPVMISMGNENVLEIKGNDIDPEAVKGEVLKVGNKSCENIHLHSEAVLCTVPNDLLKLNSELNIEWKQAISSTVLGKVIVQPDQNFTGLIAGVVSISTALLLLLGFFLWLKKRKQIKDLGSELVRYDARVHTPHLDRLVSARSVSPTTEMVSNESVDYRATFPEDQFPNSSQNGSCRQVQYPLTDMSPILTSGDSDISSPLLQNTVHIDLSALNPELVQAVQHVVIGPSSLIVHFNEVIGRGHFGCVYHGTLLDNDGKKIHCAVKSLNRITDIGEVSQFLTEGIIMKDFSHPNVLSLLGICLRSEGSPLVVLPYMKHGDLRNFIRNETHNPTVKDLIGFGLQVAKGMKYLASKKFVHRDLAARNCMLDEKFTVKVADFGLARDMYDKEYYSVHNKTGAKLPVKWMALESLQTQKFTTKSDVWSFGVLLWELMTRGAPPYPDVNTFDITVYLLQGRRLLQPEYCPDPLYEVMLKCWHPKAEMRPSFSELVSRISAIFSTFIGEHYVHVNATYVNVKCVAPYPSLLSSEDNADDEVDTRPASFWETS

Mean Object Fluorescence (Internalized), 5 Hours 37° C., EBC-1, 0.3 nM [1]: 2690
Mean Object Fluorescence (Internalized), 5 Hours 37° C., EBC-1, 1.9 nM [1]: 3050
Mean Object Fluorescence (Internalized), 5 Hours 37° C., EBC-1, 12 nM [1]: 1990
Mean Object Fluorescence (Internalized), 5 Hours 37° C., EBC-1, 70 nM [1]: 2600
Mean Object Fluorescence (Internalized), 5 Hours 37° C., HT-29, 0.3 nM [1]: 2750
Mean Object Fluorescence (Internalized), 5 Hours 37° C., HT-29, 1.9 nM [1]: 2360
Mean Object Fluorescence (Internalized), 5 Hours 37° C., HT-29, 12 nM [1]: 2330
Mean Object Fluorescence (Internalized), 5 Hours 37° C., HT-29, 70 nM [1]: 2290
Kd [2]: > 50 nM
Kd [3]: > 50 nM
Substance: palivizumab (v22277), unconjugated anti-RSV antibody
